Like-named read-outs stand apart in the source and are kept apart here. Starred links: 1 amine or outer side, 2 acyl side, 3 side chain; linkers in the order of their positions; H or OH if unused. Non-standard residues stand in square brackets, D forms with d. Groups on a side chain read outwards from the residue. *: point of attachment. C18 diacid = O=C(O)CCCCCCCCCCCCCCCCC(=O)*; γGlu = O=C(O)[C@H](CCC(=O)[*:2])N[*:1]; AEEA = NCCOCCOCC(=O)O; Aib = CC(C)(N)C(=O)O
T1: human amylin-3 (a) receptor (human, UniProt P30988 25-474; O60896 24-148)
T1 sequence (looked up) 1: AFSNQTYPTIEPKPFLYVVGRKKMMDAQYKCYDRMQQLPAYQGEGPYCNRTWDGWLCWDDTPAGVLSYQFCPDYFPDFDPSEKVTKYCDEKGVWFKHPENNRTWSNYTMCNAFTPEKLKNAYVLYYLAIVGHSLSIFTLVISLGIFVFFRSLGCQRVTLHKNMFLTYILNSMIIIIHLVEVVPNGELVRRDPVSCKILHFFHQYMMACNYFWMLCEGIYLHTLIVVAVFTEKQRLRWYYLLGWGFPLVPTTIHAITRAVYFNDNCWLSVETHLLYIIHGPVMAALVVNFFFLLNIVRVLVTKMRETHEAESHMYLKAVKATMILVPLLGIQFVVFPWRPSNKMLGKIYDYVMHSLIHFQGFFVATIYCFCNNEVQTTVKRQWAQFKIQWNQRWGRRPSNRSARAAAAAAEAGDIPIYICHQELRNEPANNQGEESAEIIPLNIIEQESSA
T1 sequence (looked up) 2: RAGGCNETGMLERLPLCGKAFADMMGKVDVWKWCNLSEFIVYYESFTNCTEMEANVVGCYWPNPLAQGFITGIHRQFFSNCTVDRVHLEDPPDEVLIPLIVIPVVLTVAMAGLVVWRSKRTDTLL


How the values were obtained:
Assay in all cases: cell-based or functional assay
human GLP-1 receptor [1] = molecular target: T2, human GLP-1 receptor (human, UniProt P43220 24-463)
[2] = molecular target: T1, human amylin-3 (a) receptor
human GLP-1 receptor [3] = molecular target: T2, human GLP-1 receptor; remark: listed apart in the source
[4] = molecular target: T1, human amylin-3 (a) receptor; remark: listed apart in the source

Row | Human GLP-1R potency [EC50 (pM)] (human GLP-1 receptor [1]) [pM] | Human AmyR3 potency [EC50 (pM)] [2] [pM] | Human GLP-1R potency [EC50 (pM)] (human GLP-1 receptor [3]) [pM] | Human AmyR3 potency [EC50 (pM)] [4] [pM] | Binder
1 | 4.5 | 230 | – | – | Comparator compound 0671 (ends and bridges not checked) peptide: H[Aib]EGTFTSDVSSYLEEQAAREFIAWLVRGRK([AEEA-AEEA-γGlu-C18 diacid])GGGGEKCNTATCATQRLANFLVHSSNNFGPILPPTNVGSNTY-NH2
2 | 3 | 11.5 | 3 | 11.5 | Compound 0111 (peptide) peptide: H[Aib]EGTFTSDVSSYLEEQAAREFIAWLVRGRK([AEEA-AEEA-γGlu-C18 diacid])GGGGEASELSTAALGRLSAELHELATLPRTETGSGSP-NH2
3 | 2.2 | 606 | – | – | Comparator compound 0672 (ends and bridges not checked) peptide: H[Aib]EGTFTSDVSSYLEEQAAREFIAWLVRGRK([AEEA-AEEA-γGlu-C18 diacid])GGGGEKCNTATCATQRLAEFLRHSSNNFGPILPPTNVGSNTP-NH2

Source: US20260132182A1 (published 2026)
